Measurements taken from patent US20160237144A1.
Each block holds one binder with its values, some of them ahead of it.

Assays:
[1] = target: TtSlyD-FKBP-B (Thermus thermophilus); experiment: SPR (Biacore), 25 C; antibody (89 RU) captured on goat anti-rabbit Fc-gamma, TtSlyD-B as analyte; Langmuir fit
[2] = target: TtSlyD-FKBP-A (Thermus thermophilus); experiment: SPR (Biacore), 25 C; antibody captured on goat anti-rabbit Fc-gamma, TtSlyD-A as analyte; apparent affinity, kd set to the instrument limit
Sequence of TtSlyD-FKBP-A (Thermus thermophilus) (main, as listed by the source): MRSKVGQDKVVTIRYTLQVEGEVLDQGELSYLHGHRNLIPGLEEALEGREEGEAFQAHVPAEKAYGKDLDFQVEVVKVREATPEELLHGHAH

[3] = target: TtSlyD-FKBP-B (Thermus thermophilus); experiment: SPR (Biacore), captured antibody, TtSlyD_B as analyte 0-300 nM, Langmuir fit
[4] = target: TtSlyD-FKBP-B (Thermus thermophilus); experiment: SPR (Biacore), 25 C; antibody captured on goat anti-rabbit Fc-gamma, TtSlyD-B as analyte; apparent affinity, kd set to the instrument limit
[5] = target: TtSlyD-FKBP-B (Thermus thermophilus); experiment: SPR (Biacore), 25 C; antibody captured on goat anti-rabbit Fc-gamma, TtSlyD-B as analyte; kd set to the instrument limit of 1e-05 1/s
[6] = target: TtSlyD-FKBP-A (Thermus thermophilus); experiment: SPR (Biacore), 25 C; antibody (92 RU) captured on goat anti-rabbit Fc-gamma, TtSlyD-A as analyte; Langmuir fit
[7] = target: TtSlyD-FKBP clone 3 C1 (Thermus thermophilus); experiment: SPR (Biacore), 25 C; 1253 RU 0712pS4D5 captured on goat anti-rabbit antibody, scaffold 3C1 (18 kDa) captured by it
Sequence of TtSlyD-FKBP clone 3 C1 (Thermus thermophilus) (main, as listed by the source): as above

[8] = target: TtSlyD-FKBP clone 5F8 (Thermus thermophilus); experiment: SPR (Biacore), 25 C; 1141 RU 0712pS4D5 captured on goat anti-rabbit antibody, scaffold 5F8 (18 kDa) captured by it
Sequence of TtSlyD-FKBP clone 5F8 (Thermus thermophilus) (main, as listed by the source): as above

[9] = target: TtSlyD-FKBP-A (Thermus thermophilus); experiment: SPR (Biacore), 25 C; antibody captured on goat anti-rabbit Fc-gamma, TtSlyD-A as analyte; kd set to the instrument limit of 1e-05 1/s
[10] = target: TtSlyD-FKBP-A (Thermus thermophilus); experiment: SPR (Biacore B3000), antibody captured by GAR-Fcγ, scaffold in solution, 25° C.; dissociation beyond instrument limit
[11] = target: TtSlyD-FKBP-B (Thermus thermophilus); experiment: as above
[12] = target: TtSlyD-FKBP clone 3 F12 (Thermus thermophilus); experiment: SPR (Biacore), 25 C; 1268 RU 0712pS4D5 captured on goat anti-rabbit antibody, scaffold 3F12 (18 kDa) captured by it
Sequence of TtSlyD-FKBP clone 3 F12 (Thermus thermophilus) (main, as listed by the source): as above

[13] = target: TtSlyD-FKBP-A (Thermus thermophilus); experiment: SPR (Biacore), captured antibody, TtSlyD_A as analyte 0-300 nM, Langmuir fit
[14] = target: TtSlyD-FKBP-A (Thermus thermophilus); experiment: SPR (Biacore), 25 C; antibody (223 RU) captured on goat anti-rabbit Fc-gamma, TtSlyD-A as analyte; Langmuir fit
[15] = target: TtSlyD-FKBP-B (Thermus thermophilus); experiment: SPR (Biacore), 25 C; antibody (212 RU) captured on goat anti-rabbit Fc-gamma, TtSlyD-B as analyte; Langmuir fit

Sequence of TtSlyD-FKBP-B (Thermus thermophilus) (main, as listed by the source): as above

MR (Molar Ratio) [1]: 1.9
kon [1]: 271000 M⁻¹ s⁻¹
Kd [2]: 0.0299 nM
Kd [3]: 0.037 nM
MR (Molar Ratio) [3]: 1.9
koff [3]: < 1e-05 s⁻¹
kon [3]: 271000 M⁻¹ s⁻¹
Kd [4]: 0.0369 nM
koff [5]: 1e-05 s⁻¹
MR (Molar Ratio) [6]: 1.7
kon [6]: 335000 M⁻¹ s⁻¹
MR (Molar Ratio) [7]: 2
scaffold (RU) [7]: 267 RU
MR (Molar Ratio) [8]: 2
scaffold (RU) [8]: 254 RU
koff [9]: 1e-05 s⁻¹
koff [10]: < 1e-05 s⁻¹
koff [11]: < 1e-05 s⁻¹
MR (Molar Ratio) [12]: 2
scaffold (RU) [12]: 286 RU
Kd [13]: 0.03 nM
MR (Molar Ratio) [13]: 1.7
koff [13]: < 1e-05 s⁻¹
kon [13]: 335000 M⁻¹ s⁻¹
B1: RabMab 0712pS4D3 (antibody, V domains shown)
VH: CQSLEESGGRLVKPGGSLTLTCTVSGFSLSSYAMIWVRQAPGKGLEWIGVISSLGITYYANWAKGRFTISKASTTVDLKIASPTIGDTATYFCARGFFAGGSNYYPLWGPGTLVTVSS
VL: CQASETIINWCSWYQQKPGQPPKLLIYKASNLESGVPSRFKGSGSGTEFTLTISDLECADAATYYCQQGYGYRDLENPFGGGTEVVVKG

MR (Molar Ratio) [14]: 1.2
kon [14]: 1.27e+06 M⁻¹ s⁻¹
Kd [2]: 0.00787 nM
Kd [3]: 0.023 nM
MR (Molar Ratio) [3]: 1.4
koff [3]: < 1e-05 s⁻¹
kon [3]: 428000 M⁻¹ s⁻¹
MR (Molar Ratio) [15]: 1.4
kon [15]: 428000 M⁻¹ s⁻¹
Kd [4]: 0.0234 nM
koff [5]: 1e-05 s⁻¹
koff [9]: 1e-05 s⁻¹
koff [10]: < 1e-05 s⁻¹
koff [11]: < 1e-05 s⁻¹
Kd [13]: 0.008 nM
MR (Molar Ratio) [13]: 1.2
koff [13]: < 1e-05 s⁻¹
kon [13]: 1.27e+06 M⁻¹ s⁻¹
B2: RabMab 0612pS3A8 (antibody, V domains shown)
VH: CQSVEESGGRLVTPGTPLTLTCTVSGFSLSSNAISWVRQAPGKGLEWIGIINNIGSTWYASWAKGRFTISKASSTTVDLKMTSLTTEDTATYFCARIVVNYNLGPYNLWGPGTLVTVSS
VL: AFELTQTPSSVEAAVGGTVTIKCQATENIGNALAWYQQKPGQPPKLLIYRASTLASGVPSRFKGSGSGTDFTLTISDLECADAATYYCQSYYDIYTYVFGGGTEL
